What was measured:
[1] = molecular target: T1, human (Homo sapiens) ROR2, full length, on cells (human, UniProt Q01974 34-943); experiment: flow cytometry on CHO cells expressing human ROR2
T1 construct: also called human ROR2; CHO-ROR2
Method: Cells (1×10⁵ cells/well) were incubated in polystyrene 96-well round-bottom plates (Greiner bio-one, cat. no. 650180) with serial dilutions of antibodies (ranging from 0.01 to 10 μg/mL in 3- or 4-fold dilution steps) in 100 μL PBS/0.1% BSA/0.02% azide (FACS buffer) at 4° C. for 30-60 min. Experiments were performed in technical duplicate. After washing twice in FACS buffer, cells were incubated in 50 μL secondary antibody (R-Phycoerythrin [PE]-conjugated goat-anti-human IgG F(ab′)₂; diluted 1:200 in FACS buffer; Jackson ImmunoResearch Laboratories, Inc., West Grove, PA, cat. no. 109-116-098) at 4° C. for 30 min. Cells were washed twice in FACS buffer, re-suspended in 30 μL FACS buffer containing Topro-3 (1:10,000 dilution) and analyzed on an iQue Screener (Intellicyt Corporation, USA). Binding curves were analyzed using non-linear regression (sigmoidal dose-response with variable slope) using GraphPad Prism V7.02 software (GraphPad Software, San Diego, CA, USA).

[2] = molecular target: T2, cynomolgus monkey (Macaca fascicularis) ROR2, full length, on CHO cells (cynomolgus monkey (Macaca fascicularis), UniProt Q01974 34-943 (human entry)); experiment: flow cytometry on CHO cells expressing cynomolgus monkey ROR2
T2 construct: also called ROR2mf; CHO-mfROR2
T2 chain: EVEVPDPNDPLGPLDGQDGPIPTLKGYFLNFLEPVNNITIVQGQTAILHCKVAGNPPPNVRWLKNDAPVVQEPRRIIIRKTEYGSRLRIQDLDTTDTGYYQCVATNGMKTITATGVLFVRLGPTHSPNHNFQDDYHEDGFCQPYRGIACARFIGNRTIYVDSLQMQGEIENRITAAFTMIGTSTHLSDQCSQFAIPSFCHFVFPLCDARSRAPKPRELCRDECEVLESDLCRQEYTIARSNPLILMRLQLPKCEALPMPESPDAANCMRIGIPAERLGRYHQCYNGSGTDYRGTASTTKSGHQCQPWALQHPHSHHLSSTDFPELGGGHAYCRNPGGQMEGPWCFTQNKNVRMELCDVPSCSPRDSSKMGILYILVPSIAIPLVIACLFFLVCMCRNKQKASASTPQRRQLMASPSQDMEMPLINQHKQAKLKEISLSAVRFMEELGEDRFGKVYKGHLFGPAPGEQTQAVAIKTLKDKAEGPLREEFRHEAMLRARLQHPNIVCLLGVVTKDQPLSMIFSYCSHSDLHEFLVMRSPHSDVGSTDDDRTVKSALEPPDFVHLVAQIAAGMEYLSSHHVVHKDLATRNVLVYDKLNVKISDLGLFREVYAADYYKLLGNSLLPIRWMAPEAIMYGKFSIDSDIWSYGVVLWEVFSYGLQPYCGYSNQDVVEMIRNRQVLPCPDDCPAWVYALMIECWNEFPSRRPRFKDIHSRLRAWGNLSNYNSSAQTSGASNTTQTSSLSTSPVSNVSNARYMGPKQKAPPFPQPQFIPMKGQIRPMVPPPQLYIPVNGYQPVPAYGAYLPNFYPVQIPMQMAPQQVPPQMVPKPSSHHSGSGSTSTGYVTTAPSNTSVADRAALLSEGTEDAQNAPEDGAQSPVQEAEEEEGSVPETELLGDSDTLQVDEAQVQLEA
Method: Next, binding of bispecific CD3×ROR2 antibodies and monospecific ROR2 antibodies to CHO cells expressing human or cynomolgus monkey ROR2 was determined, using 5×10⁴ transfected cells/well and an antibody concentration range from 0.01-10 μg/mL.

[3] = molecular target: T3, cynomolgus monkey ROR2 in which threonine at position 322 is replaced by methionine (ROR2mf-T322M) (cynomolgus monkey (Macaca fascicularis), UniProt Q01974 34-943 (human entry)); experiment: flow cytometry on CHO cells expressing ROR2mf-T322M
T3 construct: also called RORmf-T322M

[4] = molecular target: T1, human (Homo sapiens) ROR2, full length, …; experiment: flow cytometry on ROR2-expressing tumor cell lines
[5] = molecular target: T1, human (Homo sapiens) ROR2, full length, …; experiment: cell-based or functional assay

T1 sequence (Q01974 34-943 limits assumed): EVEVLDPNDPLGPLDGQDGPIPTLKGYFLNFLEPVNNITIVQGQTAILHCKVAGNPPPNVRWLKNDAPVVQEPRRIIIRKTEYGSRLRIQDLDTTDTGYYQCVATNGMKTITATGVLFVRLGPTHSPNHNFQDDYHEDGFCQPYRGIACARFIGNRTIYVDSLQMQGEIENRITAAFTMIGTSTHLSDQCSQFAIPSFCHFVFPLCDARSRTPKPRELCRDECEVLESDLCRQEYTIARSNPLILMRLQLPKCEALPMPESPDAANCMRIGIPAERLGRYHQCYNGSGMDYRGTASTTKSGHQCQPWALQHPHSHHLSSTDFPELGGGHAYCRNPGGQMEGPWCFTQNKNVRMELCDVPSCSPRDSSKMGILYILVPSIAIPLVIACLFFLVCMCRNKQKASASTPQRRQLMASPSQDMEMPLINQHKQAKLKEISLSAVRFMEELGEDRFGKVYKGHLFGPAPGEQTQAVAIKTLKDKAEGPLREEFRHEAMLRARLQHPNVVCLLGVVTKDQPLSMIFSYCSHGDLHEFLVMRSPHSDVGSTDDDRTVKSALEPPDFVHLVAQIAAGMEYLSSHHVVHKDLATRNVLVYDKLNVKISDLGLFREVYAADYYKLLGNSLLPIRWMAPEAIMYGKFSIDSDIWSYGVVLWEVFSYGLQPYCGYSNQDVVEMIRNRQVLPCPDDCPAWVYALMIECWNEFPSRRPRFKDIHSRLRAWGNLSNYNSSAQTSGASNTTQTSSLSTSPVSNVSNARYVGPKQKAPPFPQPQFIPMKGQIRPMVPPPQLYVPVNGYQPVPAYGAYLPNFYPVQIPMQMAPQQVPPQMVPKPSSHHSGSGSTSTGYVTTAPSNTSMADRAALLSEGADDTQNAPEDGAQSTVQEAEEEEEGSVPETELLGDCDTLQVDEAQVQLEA

B1: bsIgG1-huCD3-FEAL×ROR2-A-HC4LC3-FEAR (bispecific antibody)
heavy 1: not shown
light 1: not shown
heavy 2: EVQLLESGGGLVQPGGSLRLSCTVSGFSLSSYSMSWVRQAPGKGLEWIGVIYVNSKTWYANWAKGRFTISKDNSKNTVYLQMNSLRAEDTATYYCARGDAGYTTNSWLWGQGTLVTVSSASTKGPSVFPLAPSSKSTSGGTAALGCLVKDYFPEPVTVSWNSGALTSGVHTFPAVLQSSGLYSLSSVVTVPSSSLGTQTYICNVNHKPSNTKVDKRVEPKSCDKTHTCPPCPAPEFEGGPSVFLFPPKPKDTLMISRTPEVTCVVVAVSHEDPEVKFNWYVDGVEVHNAKTKPREEQYNSTYRVVSVLTVLHQDWLNGKEYKCKVSNKALPAPIEKTISKAKGQPREPQVYTLPPSREEMTKNQVSLTCLVKGFYPSDIAVEWESNGQPENNYKTTPPVLDSDGSFFLYSRLTVDKSRWQQGNVFSCSVMHEALHNHYTQKSLSLSPGK
light 2: AFELTQSPSSLSASVGDRVTITCQASESIDNYLSWYQQKPGKAPKLLIYQAFKLASGVPSRFRGSGSGTDFTLTISSLQPEDFATYYCQSYSGISTTAFGGGTKVEIKRTVAAPSVFIFPPSDEQLKSGTASVVCLLNNFYPREAKVQWKVDNALQSGNSQESVTEQDSKDSTYSLSSTLTLSKADYEKHKVYACEVTHQGLSSPVTKSFNRGEC
[1]
  binding result: binds
[2]
  binding result: binds
[3]
  binding result: binds

B2: bsIgG1-huCD3-H101G-FEAL×ROR2-A-HC4LC3-FEAR (bispecific antibody)
heavy 1: not shown
light 1: not shown
heavy 2: EVQLLESGGGLVQPGGSLRLSCTVSGFSLSSYSMSWVRQAPGKGLEWIGVIYVNSKTWYANWAKGRFTISKDNSKNTVYLQMNSLRAEDTATYYCARGDAGYTTNSWLWGQGTLVTVSSASTKGPSVFPLAPSSKSTSGGTAALGCLVKDYFPEPVTVSWNSGALTSGVHTFPAVLQSSGLYSLSSVVTVPSSSLGTQTYICNVNHKPSNTKVDKRVEPKSCDKTHTCPPCPAPEFEGGPSVFLFPPKPKDTLMISRTPEVTCVVVAVSHEDPEVKFNWYVDGVEVHNAKTKPREEQYNSTYRVVSVLTVLHQDWLNGKEYKCKVSNKALPAPIEKTISKAKGQPREPQVYTLPPSREEMTKNQVSLTCLVKGFYPSDIAVEWESNGQPENNYKTTPPVLDSDGSFFLYSRLTVDKSRWQQGNVFSCSVMHEALHNHYTQKSLSLSPGK
light 2: AFELTQSPSSLSASVGDRVTITCQASESIDNYLSWYQQKPGKAPKLLIYQAFKLASGVPSRFRGSGSGTDFTLTISSLQPEDFATYYCQSYSGISTTAFGGGTKVEIKRTVAAPSVFIFPPSDEQLKSGTASVVCLLNNFYPREAKVQWKVDNALQSGNSQESVTEQDSKDSTYSLSSTLTLSKADYEKHKVYACEVTHQGLSSPVTKSFNRGEC
[1]
  binding result: binds
[3]
  binding result: binds

B3: bsIgG1-huCD3-H101G-FEAL×b12-FEAR (bispecific antibody)
heavy 1: not shown
light: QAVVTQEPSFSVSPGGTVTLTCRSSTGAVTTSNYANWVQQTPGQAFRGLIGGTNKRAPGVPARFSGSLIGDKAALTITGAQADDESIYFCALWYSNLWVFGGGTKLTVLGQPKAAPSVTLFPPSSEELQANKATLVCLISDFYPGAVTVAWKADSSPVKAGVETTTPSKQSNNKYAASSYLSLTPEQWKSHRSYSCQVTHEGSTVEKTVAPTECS
heavy 2: QVQLVQSGAEVKKPGASVKVSCQASGYRFSNFVIHWVRQAPGQRFEWMGWINPYNGNKEFSAKFQDRVTFTADTSANTAYMELRSLRSADTAVYYCARVGPYSWDDSPQDNYYMDVWGKGTTVIVSSASTKGPSVFPLAPSSKSTSGGTAALGCLVKDYFPEPVTVSWNSGALTSGVHTFPAVLQSSGLYSLSSVVTVPSSSLGTQTYICNVNHKPSNTKVDKRVEPKSCDKTHTCPPCPAPEFEGGPSVFLFPPKPKDTLMISRTPEVTCVVVAVSHEDPEVKFNWYVDGVEVHNAKTKPREEQYNSTYRVVSVLTVLHQDWLNGKEYKCKVSNKALPAPIEKTISKAKGQPREPQVYTLPPSREEMTKNQVSLTCLVKGFYPSDIAVEWESNGQPENNYKTTPPVLDSDGSFFLYSRLTVDKSRWQQGNVFSCSVMHEALHNHYTQKSLSLSPGK
VL: EIVLTQSPGTLSLSPGERATFSCRSSHSIRSRRVAWYQHKPGQAPRLVIHGVSNRASGISDRFSGSGSGTDFTLTITRVEPEDFALYYCQVYGASSYTFGQGTKLERK
notes: Control bispecific; also called bsIgG1-huCD3-H1010G-FEAL×b12-FEAR
[4]
  binding result: no binding (tested: 0.014-30 µg/mL)

B4: bsIgG1-huCD3-FEAL×chROR2-A-FEAR (bispecific antibody)
heavy 1: not shown
light 1: not shown
heavy 2: QSVEESGGRLVTPGTPLTLTCTVSGFSLSSYSMSWVRQAPGKGLEWIGVIYVNSKTWYANWAKGRFTISKTSTTVDLKITSPTTEDTATYFCARGDAGYTTNSWLWGPGTLVTVSSASTKGPSVFPLAPSSKSTSGGTAALGCLVKDYFPEPVTVSWNSGALTSGVHTFPAVLQSSGLYSLSSVVTVPSSSLGTQTYICNVNHKPSNTKVDKRVEPKSCDKTHTCPPCPAPEFEGGPSVFLFPPKPKDTLMISRTPEVTCVVVAVSHEDPEVKFNWYVDGVEVHNAKTKPREEQYNSTYRVVSVLTVLHQDWLNGKEYKCKVSNKALPAPIEKTISKAKGQPREPQVYTLPPSREEMTKNQVSLTCLVKGFYPSDIAVEWESNGQPENNYKTTPPVLDSDGSFFLYSRLTVDKSRWQQGNVFSCSVMHEALHNHYTQKSLSLSPGK
light 2: AFELTQTPASVSEPVGGTVTIKCQASESIDNYCSWYQQKPGQPPKLLIYQAFKLASGVPSRFRGSGSGTQFTLTISDLESDDAATYYCQSYSGISTTAFGGGTEVVVKRTVAAPSVFIFPPSDEQLKSGTASVVCLLNNFYPREAKVQWKVDNALQSGNSQESVTEQDSKDSTYSLSSTLTLSKADYEKHKVYACEVTHQGLSSPVTKSFNRGEC
[5]
  IC50 of T cell mediated cytotoxicity, 786-O cells, human T cells, E:T 8:1: 3 ng/mL
  IC50 of T cell mediated cytotoxicity, Hela cells, human T cells, E:T 8:1: 2 ng/mL
  IC50 of T cell mediated cytotoxicity, LCLC-103H cells, human T cells, E:T 8:1: 11 ng/mL
  IC50 of T cell mediated cytotoxicity, NCI-H23 cells, human T cells, E:T 8:1: 13 ng/mL
  IC50 of T cell mediated cytotoxicity, NCI-H1650 cells, human T cells, E:T 8:1: 6 ng/mL
  IC50 of T cell mediated cytotoxicity, ZR-75-1 cells, human T cells, E:T 8:1: 3 ng/mL
[2]
  binding result: binds
[3]
  binding result: binds
